Laboratory results published in the domain aggregation screens of Martell et al. (2025).

Test: soluble fraction after stress (log2 fold change); higher = more stays soluble; pooled small domains, quantitative proteomics
Conditions: stress: 50 degC
Outline: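 The stress applied to every library was 50°C. These custom libraries of small protein domains were pooled and measured at high throughput with quantitative proteomics as the read-out. Aggregation propensity is expressed as the base-two logarithm of the fold change in how much of each protein remains soluble. The higher the value, the more of that protein stays in solution.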

Sequence: HMDEFQLTPREQEILGLLVKGYTYKRIASELNLSYATVNRHVSNVYVKLRVHSVNEAVALAVRKGL
- soluble fraction (log2): -0.997

Sequence: HMKTLLSMNIKNLRKKKNMTLEELAEKVGTSKQTIQRYESGKISNIPSDKIELLAKYLDTTPAKLMGW
- soluble fraction (log2): 0.441

Sequence: HMTLAAATESREYLADLARRLDAADHGDKTRIKAEAAGLLGWSMATLHARLARDVGWTSGRK
- soluble fraction (log2): -0.0944

Sequence: HMESAQLIINVAGKVSNPGVYQLPQGSRVVDAIEAAGKQLKGVDISDINLARVLVDGEQILVGGV
- soluble fraction (log2): 0.247

Sequence: HMTVPDVKGMGARDAVFLLETLGFKVRINGIGQVYEQSIDPGKSYSKGEFISLRL
- soluble fraction (log2): -0.51

Sequence: HMRGFGEVGQLPSGRYRARYTGPDGGRHSAPITFVARIDAEGWLVDQERMISRGEWEPPARQ
- soluble fraction (log2): -0.224

Sequence: HMGKFMVQVGAFSRINGAEITRTKYDNLGTHKAIIKNLDGMNRVFLTGFLSEDEARDFIASSNLKGAFIIR
- soluble fraction (log2): -1.66

Sequence: HMTVVSVDDQASASSEAIRTKVAGDSAARMSVDAGGKITWGAGSASGDVTLYRSAANTLKTDDTLVAT
- soluble fraction (log2): -0.0266

Sequence: HMVLTSFHDNFPKTGTTYTVRSGDTISGIATKFGSTRDWIQNANEISHPKYLQVGRTLFIPH
- soluble fraction (log2): -0.203

Sequence: HMDMSDFEVVRDMYLTGKVWNAGDIVEAKGITGEVVRKGTNYLSFVDKNGKVHKAWLHEIEL
- soluble fraction (log2): -0.188

Sequence: HMTMRFVVADGQNFGSIAQSKALEAVKKGNTEFNYKDVDYTVDIQSDDFYVVYQGRDIMGYASR
- soluble fraction (log2): -2

Sequence: HMEEQIEVPVQINGKVRSKLTVAPETDEKQIEALALADPKVQQQLEGKRVLKVIVAQKRLVNIVA
- soluble fraction (log2): -0.0336

Sequence: HMTELKKTAVDTWVKDLGTEQALAKLDTLAVVKLRRLAREYKAFGIAGRAISKADKGMLLAEFRAYYEN
- soluble fraction (log2): -1.86

Sequence: HMLPQYELIKQYLRHQIETGEWPIGYRTPSEPKLAEQFSVSRMTARRALQELADQGLLSRTAGSGTFVAKP
- soluble fraction (log2): -0.483

Sequence: HMQVTPQVLRLLDVLGDKELSLRQIAEALGLSDRKNIMRNYVVPALDSGRVVRTVPNKPNSRFQKYRK
- soluble fraction (log2): -0.404

Sequence: HMQYDALVLNLLQEKNLTSESLKDAQRAFAKSHNLSTLPSKSQILQAYFQLLEQGKIEKNPDFELLL
- soluble fraction (log2): -0.108

Sequence: HMHGESISVPDLRGQKMERMPAFLADKHLQFKVIDSLFDLEKNPGTVLEQDPAPNSKVKEGRTIYLTVNAQ
- soluble fraction (log2): -0.022

Sequence: HMSTFKSYRGKITASSGVNIRTGAGTNYNKNGALTYNSVVTIVDEKKVSGTTWGKLADGRGWISLDYLKK
- soluble fraction (log2): -0.554

Sequence: HMKSEIRKKNSQIILDAAEHEFSVHGYRGTSVQMIADRSGLPKANLHYYYKSKSALYGAVLDRIL
- soluble fraction (log2): 0.202

Sequence: HMQDVWEPFLAKGYVFADGMLTKLIHKRGDVYKTQEIGSDKIIYVIKDGDTFAHGKTVKAAMLDLAFKKS
- soluble fraction (log2): -1.29

Sequence: HMSNRFIQFRQRAIDWLNSDRDFNAGILLLEESGFKPGVVAKLKRHGVNGPEAKKRLKFLINELVKAWA
- soluble fraction (log2): -0.0824

Sequence: HMELEIPGELIEAVRRLRDERQRMRLAGELAARQIQMHPERYTEASIDPVQTWDELRARILALA
- soluble fraction (log2): -0.248

Sequence: HMTFFDDLLYQAKAAVDNDPSIKPSLHNRAIIEILYQQGVFNMKNAVEHVAELLEISKNTVYLHLRSVKG
- soluble fraction (log2): -0.973

Sequence: HMSVFGDNVARLRAEHGMSQRALAERLEITNGTVAAWESRDTLPDYDRIRQIAEIFDVPIPQLFAKYIP
- soluble fraction (log2): -1.66

Sequence: HMKQQNFADLAGRFVFNADNEVVFNFGKHKNVPVATVLKNEPGYYGWMMGGDFPLFTKKILKQIKEA
- soluble fraction (log2): -0.847

Sequence: HMLTPQEIGSRLKLVRQGLQLKQQEVAEIIGTSQLKISKIEQGATVTTPDFLKLLAFYSQSVSLDILF
- soluble fraction (log2): -0.564

Sequence: HMDYINALTTAGITDAKVIVTAPFDVSGTAALTGIYKAYEDITGSSLNEIAKAVGVEELITTGNLA
- soluble fraction (log2): 0.0392

Sequence: HMSNGYVTAKTTVNVRKSASESGERLGVIYQGDKLELVMNQADGWTKVKYKGQTAYVKSEFM
- soluble fraction (log2): -0.6

Sequence: HMSQNVSFTVDSGQAGLRLDVFLSQADPAFSRSQIKYAIEEGDVTVNGKEPKVSQHLKDGDIVELHLE
- soluble fraction (log2): -0.0973

Sequence: HMSVEVADITRAYYEGVGFEWWIRSVRLDPNELIVDNDDEGKLYRVPFEINGEEVTFGDPVEVKIRYE
- soluble fraction (log2): -0.541

Sequence: HMQVPWYQRLKEKRLEYGVSQNKLATHIGISRQYMSEIETGKVTPSDSLQATLFDILEQFNPDA
- soluble fraction (log2): -0.363

Sequence: HMKAGRNTLARQMAILEVLQKDGRALVDDLAARFETTPQTIRKDLSALAEVNQISRFHGGAALVG
- soluble fraction (log2): -0.0796

Sequence: HMSLSKQETEFLTTFSASGKRVFTYQQATDYWQSKVAATNVLGRLVRKGWLQRLERGLYMIIPLEAGPERF
- soluble fraction (log2): -0.853

Sequence: HMKHFFIIAGGKIEDAFAIEVLKGFAEKTVIAADSGMEFLRRNEIVPQVIIGDFDSVSKETLEWFQKK
- soluble fraction (log2): -0.703

Sequence: HMLSDLTPGDLVVHATHGIGRFLGIRKLELEGMTKDYITIQYRGNENLYVPVTQMDLVSRYI
- soluble fraction (log2): -0.292

Sequence: HMDPPVDLTPREQQVLSRIALGMSDKAIAAELGVSHQTVRNHVARIYAKIKVHSRSQAIVWAREKGIP
- soluble fraction (log2): -0.185

Sequence: HMLDLPEISARIMEVFETKDRATISELSKLTGTNINTIKKHLSSLVENNYLIKHGKTRGAWYTKST
- soluble fraction (log2): -0.104

Sequence: HMASVLTAKLSEREVDVLNLLARGFTNADIAAQLHLSEGTVRNHVSTIFAKLDVNDRTQAAVIAIRHGL
- soluble fraction (log2): -0.775

Sequence: HMEVNMEEKMEFVHSYIKTHKTFLFRQLLSESKSRTQVIVTFLVILELIKGGKISVTQENRTDDILINSL
- soluble fraction (log2): -0.342

Sequence: HMDGLIRLNKLLATLGVESRRHAEEMIIAGRITVDGVTATEKGQKVRRGAVIKVDGVEVGPPP
- soluble fraction (log2): -0.121

Sequence: HMRGRFGNAAPARNLGDHPQGGAINVKAGRYGPYVSWGKVNATLPKDSDPEKVTLEEAVALIAAKQSGQG
- soluble fraction (log2): -0.103

Sequence: HMNTAALSLQRRNEIKKWLLEEKTLTVAALSNRFNVTYETIRRDLEILEKEGFLKKVYGGAALNERV
- soluble fraction (log2): -0.0358

Sequence: HMEFTFTLPRGYIDDTGMIHREGTMRLANAADEILPLKDPRVQQNPGYLTIILLARVITKLGSL
- soluble fraction (log2): 0.277

Sequence: HMALSTRERMSFVLEVLKEKEFIPFVDLFSPEEGRAGVVVTFLALMELMKDSLIEIVQTKNFGEIHVRARL
- soluble fraction (log2): -0.218

Sequence: HMNKPLFVYPNPVHQGKINLSKATNFMVVDLLGQTVNKTNYGKDFSIDNLPNGVYFIKTTEGEIIKFMK
- soluble fraction (log2): -0.696

Sequence: HMEIVSTEEKIKRAAEQVFLLRGLEGARMQEIADVAGINKAMLHYYFRNKETLFDVILSEKL
- soluble fraction (log2): -1.51

Sequence: HMNILKAPMPGLILDVIVKESDLVKKGDPVIILEAMKMENILSSPVDGIVKEIKVNPQQTVEKNNTLIKFE
- soluble fraction (log2): -0.0546

Sequence: HMVRRSERLHALTESLRRSGNRGRTAEQLATEFEVSVRTIKRDLVALEASGLPLWSRPGPGGGYGLLS
- soluble fraction (log2): -1.02

Sequence: HMEPDEQAVKALIAEIDKLSKEKLTLKHEKKLKELREIYDDFTEEEKKLVTNYDILVKMEKRMEVLKKQEG
- soluble fraction (log2): 0.111

Sequence: HMSWAGRRSLAALEARYRDETGISNLKIKHNGVLGYHIEVPSKSADKLMAPDSGFTHRQTLAGAVR
- soluble fraction (log2): 0.0529

Sequence: HMEISLAETLRSSLHMILGWYQNTGDKKLLELIRLHLQAYVNTGNSLNPEMEEIRAALETLGEGKEAFRP
- soluble fraction (log2): -0.999

Sequence: HMNDVGKVLNQLGERDRMILLLTYWDELPLKEAARILEVSENNAKIILFRARSRFASLWSAGS
- soluble fraction (log2): -3.13

Sequence: HMAIRLIKASREFNVGISTIVEFLEKKGHAIDSDPNSKIPDELYQLIEKEFQTEGSVKKAAKQI
- soluble fraction (log2): -0.0914

Sequence: HMSKAYLSVESNISGARVFVDGQKEGTTPLSDVLLSAGEHLILVKKQGYETYQKRVRFQKGRSMSLYVDLS
- soluble fraction (log2): -0.159

Sequence: HMTEKIEWYKEVLELEPNSKVFFPLARMLAEEQRFDEAVAVLEHGLERHGEFLEARLFFIELLHET
- soluble fraction (log2): -3.69

Sequence: HMIDELLDPTHRIMVRHPRVDYVSPGFLIGPDKDVILWGFTGGIIARLFDFLGWTRPWDQSHVQDLPPYML
- soluble fraction (log2): -0.202

Sequence: HMTATVPDSEAGIRLDVYAAALLGVSRAGAQKYIESGAVRVNGLPAPKNRRLESGDVIEAVLPDPE
- soluble fraction (log2): 0.157

Sequence: HMAKSETAKIKATPYGWLRVRDTPSLNGAEIARVNSGDEYKVLEKETGWIKIKVSDTVEGWVSDAYIELS
- soluble fraction (log2): -0.0312

Sequence: HMHPVTGRIGTVTAANGLNLRADSSEYANVVATLGYGVDVTVTGERINGFYPVRVGTLSGYVSADYVSFNS
- soluble fraction (log2): -0.238

Sequence: HMNSLKNKNNLIALVGASNDKNKYGNKILLDLVSKGHNVVPINPKEDTVAGLKSYNNVSELSEKPSI
- soluble fraction (log2): -0.211

Sequence: HMIYQEGMQVKYQGKEYVISEIQDYKTYKTIKLDDNEGYLNGFITGSEILSFRNESELDLEI
- soluble fraction (log2): -0.314

Sequence: HMLDLVSIGKRIKAERQKNGLTQEALAERIEVSAHYVYELERGLKAMSVPILLRMSEVLHTSTDYLLF
- soluble fraction (log2): -2.9

Sequence: HMQEEELYPRLEEVINQHRGKGEDLIMVLHKAQNLFGYLPRRAQEMVAEGLNVSLNEVYGVITFYNFFST
- soluble fraction (log2): -0.0621

Sequence: HMASENISYSQFINQVKNSMVESVSIEADGKTISGKYKSGSSFVTYGLNDPKLVDDLLSNNVEIL
- soluble fraction (log2): 0.159

Sequence: HMQRYYDVLGLQKGVSPEELKKTYRELSKKYHPDAHHNSPLRDLAEAKFKEINEAYEKIKEFLDNNF
- soluble fraction (log2): 0.15

Sequence: HMDNQSIVRINDGDGAWRQRLGEHFGHLPRDRKRGEIVLQVDAADWRWLQTQGYAPRFDAALSAQLQTTL
- soluble fraction (log2): -0.404

Sequence: HMFERFIFTDEVYIRLKKSGLPQTTLRPLLEIHGKSFDHNEINIILSGLIPNQDFERYAQIIKSHSRF
- soluble fraction (log2): -3.82

Sequence: HMSKDQKKFFIEIVSIRGFGSQIGISILNKLSIPQIINAIKTQNKKEISSIPGIGQKMTERLILELNNKFK
- soluble fraction (log2): -0.0747

Sequence: HMTVEMYIGKTANVLETVTENNGRIAIFGEEWQAKSLNGETIEKGAQAKIVKNDSIIMYVVPI
- soluble fraction (log2): 0.0967
